Measurements published in the DeepSol protein solubility set.

Test: soluble on expression in E. coli; label from the status in PepcDB or PDB records
With “MTVFVDHKIEYMSLEDDAELLKTMAHPMRLKIVNELYKHKALNVTQIIQILKLPQSTVSQHLCKMRGKVLKRNRQGLEIYYSINNPKVEGIIKLLNPIQ” the “soluble on expression in E. coli” value was “soluble”. With “MTVIQTHGLTKRYGRVVAVEDLNLSVREGEVYGLLGPNGSGKTTTILMLLGLTEPTSGEARVLGFDPMREPLKVKSRVGYLPDQVGFYGELSAWENLRYTTRLLGLPDKEAEARIEEVLKRMGLWEVRDRKVAAFSRGMRQRLGLAEVLLKRPKVAILDEPTLGLDPEAAREFLDLIKGLKAEGITVLLSSHLLHQVQEVCDRVGLFHKGRLALEGTVAELAHRVLGGQYEILLEGAPGLEGALEAVEGVSRVEAEGGRYRVLATRDLRPELARLVVERGPLYALSLRQPSLDEIYAHYFKEVAHAA” the “soluble on expression in E. coli” value was “soluble”. For “MTVQTSKNPQVDIAEDNAFFPSEYSLSQYTSPVSDLDGVDYPKPYRGKHKILVIAADERYLPTDNGKLFSTGNHPIETLLPLYHLHAAGFEFEVATISGLMTKFEYWAMPHKDEKVMPFFEQHKSLFRNPKKLADVVASLNADSEYAAIFVPGGHGALIGLPESQDVAAALQWAIKNDRFVISLCHGPAAFLALRHGDNPLNGYSICAFPDAADKQTPEIGYMPGHLTWYFGEELKKMGMNIINDDITGRVHKDRKLLTGDSPFAANALGKLAAQEMLAAYAGLEHHHHHH”, the “soluble on expression in E. coli” value was “soluble”. With “MTVVLTLLLLLVLVGCAKPKVEQTVKLGGAVKTIGDLVVLSGNSNLPKGAVVQIVMKEIEGGKQVLEEKVKVGGDGSYSWSAKRPERAKEYELDVMFLPELQPKHVKEKYGEKGELIKKDSSGRVEYQTDGQTYVGIKMYDRILKIGDGMGGQQSMLAETLPPPPPSY” the “soluble on expression in E. coli” value was “not soluble”. In the case of “MTWLDEKGRFAIYEAPQNCPYLGTIGTCYEFGSLPVILMFPELEKLFLKLLISYVRNDGYVPHDLGFHSLDSPIDGTTSPPKWKDMNPSLILLVYRYFKFTNDIDFLKEVYPTIVKVMDWELRQCRDGLPFMEGEMDNAFDATIIKGHDSYTSSLFIASLIAMREIAKLVGDSNYVGFINEKLNVAREAFRKMFNGKYFKAWDGVDKASFLAQLYGEWFTTLLELENIVDENMIKSALESIIRLNGNASPYCVPNLVDENGKIVNLSVQTYSSWPRLVFAICWLAYKKGVGDLSFCKKEWDNLVRNGMVWDQPSRINCYTGKPEINYLDHYVGSPSLWSFLFLEHHHHHH”, the “soluble on expression in E. coli” value is reported as “not soluble”. For “MTYEIVIAGFGGQGVLSMGKILAYSGLMEDKEVSWMPSYGPEQRGGTSNVTVIVSDEQVSSPVLNEYDIVIVLNQPSLDKFEARVKKGGILVYDPDSIVLKNKRDDIQIYEVDATQESLRMGNQKAFNMIVLGGVLKVAPMVKIESVIKGLKKTLPERHHKLIPMNEQAIQRGMEIIKQIH”, the “soluble on expression in E. coli” value was “not soluble”. For “MTYKYNCCDDGSGTTVGSVVRFDNVTLLIDPGWNPSKVSYEQCIKYWEKVIPEIDVIILSQPTIECLGAHSLLYYNFTSHFISRIQVYATLPVINLGRVSTIDSYASAGVIGPYDTNKLDLEDIEISFDHIVPLKYSQLVDLRSRYDGLTLLAYNAGVCPGGSIWCISTYSEKLVYAKRWNHTRDNILNAASILDATGKPLSTLMRPSAIITTLDRFGSSQPFKKRSKIFKDTLKKGLSSDGSVIIPVDMSGKFLDLFTQVHELLFESTKINAHTQVPVLILSYARGRTLTYAKSMLEWLSPSLLKTWENRNNTSPFEIGSRIKIIAPNELSKYPGSKICFVSEVGALINEVIIKVGNSEKTTLILTKPSFECASSLDKILEIVEQDERNWKTFPEDGKSFLCDNYISIDTIKEEPLSKEETEAFKVQLKEKKRDRNKKILLVKRESKKLANGNAIIDDTNGERAMRNQDILVENVNGVPPIDHIMGGDEDDDEEEENDNLLNLLKDNSEKSAAKKNTEVPVDIIIQPSAASKHKMFPFNPAKIKKDDYGTVVDFTMFLPDDSDNVNQNSRKRPLKDGAKTTSPVNEEDNKNEEEDGYNMSDPISKRSKHRASRYSGFSGTGEAENFDNLDYLKIDKTLSKRTISTVNVQLKCSVVILNLQSLVDQRSASIIWPSLKSRKIVLSAPKQIQNEEITAKLIKKNIEVVNMPLNKIVEFS”, the “soluble on expression in E. coli” value was “soluble”. In the case of “MTYLAVVLNGPKAKNGRKVFDSFLEQNRQMFWNRELTSACESITYMGFMRPGTLFVSGPASQLTVLKDAWARRILKPAMGYTITSLGDLGAIQQVEQMHFVPLGDVICDAVAQLNRQGLAATEQAIRQYVARHCPHVAPPGIEMVRQTITSLLSTGFVYKMADHYFVSVPTNSPMRPPAKAATKTTKTTVECQTGASMMCPQQTSTSSDEHVIEPAKKDHKKCQNSNRRSIFARLFSRGMKPQTIMPSASPIHVGGPPTPPPAAMLPTKNKYPTYHHDLNEECQRKARRRNHPRRGETQKLLSSSSECLKYYPVDMPETRPTRRRARMASPLRSSTPNNSDSAYSISPPHTDSNEEAGSISDSEINHTYININKFRRQNFDSTQFEDLTGATATTSEEPEILGRHIRGVLISNL”, the “soluble on expression in E. coli” value is reported as “not soluble”. In the case of “MTYVDGFVLPVPEGKIDAYRQMAESAGKIWMEHGALQYKECVLEDAKPEMPEDAPETCKITPFGKLAGTKDGETVIFAFIVYKSREHRDEVNKKVMADPRMQEACDENNMPFDPSRMAYGGFKALVDL”, the “soluble on expression in E. coli” value is reported as “not soluble”. For “MVALPTINQLVRKGREKVRKKSKVPALKGAPFRRGVCTVVRTVTPKKPNSALRKVAKVRLTSGYEVTAYIPGEGHNLQEHSVVLIRGGRVKDLPGVRYHIVRGVYDAAGVKDRKKSRSKYGTKKPKEAAKTAAKK”, the “soluble on expression in E. coli” value was “soluble”. In the case of “MVALRGKEIDAFLARPDAGRPIVLLYGPDAGLVRERADALIASAVDDPNDPFSLVRLDGDELSAEPSRLVDEAMTVPLFGGQRAIRVRAGSRSFASGIDTLAEMGVKDCRIVIEAGELRPESPLRKACERAKTAVAIGCYPDTERDLAKLMDDELRIANLRIAQDARAALMSFLGGDRQASRNELRKLTLYAHGKGEITLEDVMAVVADASELKLDPIVDGAFAGRPDIVETEFAKAMIAGTYPGVIISAAQRQAAWLHKSALAIADGQPASAVLDGGFPRLHFSRKPAVETALRNFSVARLAAIIEQLATAALDTRKQSTLAAAIAQRTLMAIAANAKRRGLEHHHHHH”, the “soluble on expression in E. coli” value is reported as “not soluble”. For “MVAWSIVDYGSGDEVPGADAALVLGAAAWGNKPSPVFRERINHAVKLYQSGKVRWIVFTGGTPEPGYPAEADVGREFAARQGVPMTAMLVENQSRTTWQNLSNARDLGNQFGIRSYLLVSDPLHMRRAVLMAGDLGLRAYPAPTQSSRFRTLASWSRFLARETWLYVGYRVFRQLSLEHHHHHH”, the “soluble on expression in E. coli” value was “not soluble”. With “MVCGKKRVGEELRCKSCGSPFEIRTGFHYRENIEDNFPYIKNMISLGESETPIFHGDDFDLKLDYMLPTFSYKDRGSRILISHIADIRDSYGITRISEDSSGNAGASIAAYGSAAGLAVDIYVPETVAGRKFSQIQAYGANVIKVKGSREDVQSAAERSESFYASHVLRPEFRDGIRTLAYEIYRQYDRMPRNIYIPVSAGTLLLGLYSGLRHLMESGEIAEMPAIVAVQTEAVSPLCAKINGLNYDPDNKLSSIADALVSRKPVLLQKMYQVISEYGRCMTVSDDEIIEARNRLAKKGFLVEYSSATVYAAFRKKPQENSLLVLTGSGLKNDS” the “soluble on expression in E. coli” value was “not soluble”. With “MVCISRFLPVKGVQNINGKELKSIVGKKGKYFIDVRTVGEYRGNHMKGFQNIPLNDLASKANQLDKNKEVIVICQSGMRSKQAAKVLKKLGFQQVINVSGGMNSL” the “soluble on expression in E. coli” value was “not soluble”. With “MVCKVCGQKAQVEMRSRGLALCREHYLDWFVKETERAIRRHRMLLPGERVLVAVSGGKDSLALWDVLSRLGYQAVGLHIELGIGEYSKRSLEVTQAFARERGLELLVVDLKEAYGFGVPELARLSGRVACSACGLSKRYIINQVAVEEGFRVVATGHNLDDEAAVLFGNLLNPQEETLSRQGPVLPEKPGLAARVKPFYRFSEREVLSYTLLRGIRYLHEECPNAKGAKSLLYKEALNLVERSMPGAKLRFLEGFLEKIRPRLDVGEEVALKECERCGYPTTGAVCAFCRMWDAVYRRAKKRRLLPEEAVFHPKAPVARG” the “soluble on expression in E. coli” value was “soluble”. With “MVDLSRRSMLTGSWRNASNGILPPWARETTYFLAHCLRCDACIQACEADILQRGAGGYPSVDFKRGECSFCYACAQACTESLFLPRHTRAWDLVFTLTENCLARQSVECHRCQDSCEPMAITFRPTLSGIYQPQLDSQACNGCGACVAICPVSAIKAENHHAH” the “soluble on expression in E. coli” value was “not soluble”. For “MVDNIEQQVYELVRPYAGTYLFNIKQVELTPEIDLDTDLSIDELEAEDLMNKFFEELNVERGNFRIETYFPNHPFSWHPFKKTEPVPVPDFTISMLIESAKAGKWLYD”, the “soluble on expression in E. coli” value was “not soluble”. With “MVDSYDDSLDGEKSKTQVKRELHALVDLGERLTTLKADVLAKLPLTDALRKALAEAPKHTANIARKRHILFIGKLMRDQDQEAILVLLDQLDASTRQYNERFHNLERWRDRLIAGDDADLEKFVIEYPDADRQQLRSLIRQAQHEVARNKPPATSRKIFKYIRELDELQRGLR” the “soluble on expression in E. coli” value was “not soluble”. With “MVEADHPGKLFIGGLNRETNEKMLKAVFGKHGPISEVLLIKDRTSKSRGFAFITFENPADAKNAAKDMNGTSLHGKAIKVEQAKKPSFQSGGRRRPPASSRNRSPSGSLRSARGSSGGTRGWLPSHEGHLDDGGYTPDLKMSYSRGLIPVKRGPSSRSGGPPPKKSAPSAVARSNSWMGSQGPMSQRRENYGVPPRRATISSWRNDRMSTRHDGYATNDGNHPSCQETRDYAPPSRGYAYRDNGHSNRDEHSSRGYRNHRSSRETRDYAPPSRGHAYRDYGHSRRDESYSRGYRNHRSSRETREYAPPSRGHGYRDYGHSRRHESYSRGYRNHPSSRETRDYAPPHRDYAYRDYGHSSWDEHSSRGYSYHDGYGEALGRDHSEHLSGSSYRDALQRYGTSHGAPPARGPRMSYGGSTCHAYSNTRDRYGRSWESYSSCGDFHYCDREHVCRKDQRNPPSLGRVLPDPREAYGSSSYVASIVDGGESRSEKGDSSRY” the “soluble on expression in E. coli” value was “soluble”. In the case of “MVEKIERKSLAEQVYDQIKAEITSGAWKIGERIPKEADLMTQFGISRNTLREAIRALAHIGLLETKQGDGTFVRNNSELHAIMQKRVRESSVQEILEMRHALDREAVILACERRTDEDLKMLKKYKQLCYLANKDNDVTAFVKADSALHLTIVKAAHNDLLLDMYVNILEEIQFSITSTTEMNPAVNKHNGHATLVSAIEKRDKEGAAHEVTEYITLFKQIAAKNGDNK”, the “soluble on expression in E. coli” value is reported as “not soluble”. With “MVEMTRIKHVAFLNPQGNFDPADSYWTEHPDFGGQLVYVKEVSLALAEMGVQVDIITRRIKDENWPEFSGEIDYYQETNKVRIVRIPFGGDKFLPKEELWPYLHEYVNKIINFYREEGKFPQVVTTHYGDGGLAGVLLKNIKGLPFTFTGHSLGAQKMEKLNVNTSNFKEMDERFKFHRRIIAERLTMSYADKIIVSTSQERFGQYSHDLYRGAVNVEDDDKFSVIPPGVNTRVFDGEYGDKIKAKITKYLERDLGSERMELPAIIASSRLDQKKNHYGLVEAYVQNKELQDKANLVLTLRGIENPFEDYSRAGQEEKEILGKIIELIDNNDCRGKVSMFPLNSQQELAGCYAYLASKGSVFALTSFYEPFGLAPVEAMASGLPAVVTRNGGPAEILDGGKYGVLVDPEDPEDIARGLLKAFESEETWSAYQEKGKQRVEERYTWQETARGYLEVIQEIADRKDEEDEGGSLNIPDYFTNPGASNDEKLLDTFNKLWKE” the “soluble on expression in E. coli” value was “soluble”.
